1 substance from US20020168706A1 can be followed below.

For the experiment, the target named is purified RecBCD protein (Plasmid-Safe ExoV, Epicentre) (E. coli) (UniProt P08394). As to the kind of experiment: cell-based or functional assay.
UniProt P08394, sequence (P08394 2-1180 limits assumed, chain 1 of 3): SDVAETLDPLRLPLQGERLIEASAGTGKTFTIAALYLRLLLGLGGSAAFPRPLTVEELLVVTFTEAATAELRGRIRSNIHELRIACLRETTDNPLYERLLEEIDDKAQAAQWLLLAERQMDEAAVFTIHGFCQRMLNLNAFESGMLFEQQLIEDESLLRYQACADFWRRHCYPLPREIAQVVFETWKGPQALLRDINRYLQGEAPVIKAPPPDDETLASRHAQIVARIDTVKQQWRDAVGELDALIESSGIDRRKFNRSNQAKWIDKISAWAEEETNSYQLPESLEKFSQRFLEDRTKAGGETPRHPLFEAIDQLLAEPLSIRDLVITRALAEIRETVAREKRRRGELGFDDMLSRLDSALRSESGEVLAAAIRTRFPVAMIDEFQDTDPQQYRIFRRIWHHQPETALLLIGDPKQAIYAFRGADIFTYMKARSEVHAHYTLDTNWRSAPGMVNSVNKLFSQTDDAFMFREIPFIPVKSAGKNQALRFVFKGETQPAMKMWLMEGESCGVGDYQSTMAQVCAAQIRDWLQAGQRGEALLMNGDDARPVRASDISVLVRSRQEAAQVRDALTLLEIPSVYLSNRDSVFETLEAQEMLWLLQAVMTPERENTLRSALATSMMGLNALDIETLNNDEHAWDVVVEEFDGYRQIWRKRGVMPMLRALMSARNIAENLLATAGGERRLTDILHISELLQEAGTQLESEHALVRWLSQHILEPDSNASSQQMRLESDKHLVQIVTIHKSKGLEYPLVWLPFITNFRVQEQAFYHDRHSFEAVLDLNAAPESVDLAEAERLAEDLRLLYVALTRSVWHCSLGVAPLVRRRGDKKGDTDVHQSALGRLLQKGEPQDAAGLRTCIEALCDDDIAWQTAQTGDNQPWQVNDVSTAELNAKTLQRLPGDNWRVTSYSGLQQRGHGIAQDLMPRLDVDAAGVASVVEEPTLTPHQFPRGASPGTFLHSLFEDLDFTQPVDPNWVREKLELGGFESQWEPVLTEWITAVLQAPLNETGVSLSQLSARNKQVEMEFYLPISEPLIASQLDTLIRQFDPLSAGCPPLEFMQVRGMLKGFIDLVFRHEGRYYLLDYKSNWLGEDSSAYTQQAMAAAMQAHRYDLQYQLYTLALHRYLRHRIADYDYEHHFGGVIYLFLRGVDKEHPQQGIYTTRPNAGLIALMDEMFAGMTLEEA
UniProt P08394, sequence (P07648 whole entry, chain 2 of 3, further chain): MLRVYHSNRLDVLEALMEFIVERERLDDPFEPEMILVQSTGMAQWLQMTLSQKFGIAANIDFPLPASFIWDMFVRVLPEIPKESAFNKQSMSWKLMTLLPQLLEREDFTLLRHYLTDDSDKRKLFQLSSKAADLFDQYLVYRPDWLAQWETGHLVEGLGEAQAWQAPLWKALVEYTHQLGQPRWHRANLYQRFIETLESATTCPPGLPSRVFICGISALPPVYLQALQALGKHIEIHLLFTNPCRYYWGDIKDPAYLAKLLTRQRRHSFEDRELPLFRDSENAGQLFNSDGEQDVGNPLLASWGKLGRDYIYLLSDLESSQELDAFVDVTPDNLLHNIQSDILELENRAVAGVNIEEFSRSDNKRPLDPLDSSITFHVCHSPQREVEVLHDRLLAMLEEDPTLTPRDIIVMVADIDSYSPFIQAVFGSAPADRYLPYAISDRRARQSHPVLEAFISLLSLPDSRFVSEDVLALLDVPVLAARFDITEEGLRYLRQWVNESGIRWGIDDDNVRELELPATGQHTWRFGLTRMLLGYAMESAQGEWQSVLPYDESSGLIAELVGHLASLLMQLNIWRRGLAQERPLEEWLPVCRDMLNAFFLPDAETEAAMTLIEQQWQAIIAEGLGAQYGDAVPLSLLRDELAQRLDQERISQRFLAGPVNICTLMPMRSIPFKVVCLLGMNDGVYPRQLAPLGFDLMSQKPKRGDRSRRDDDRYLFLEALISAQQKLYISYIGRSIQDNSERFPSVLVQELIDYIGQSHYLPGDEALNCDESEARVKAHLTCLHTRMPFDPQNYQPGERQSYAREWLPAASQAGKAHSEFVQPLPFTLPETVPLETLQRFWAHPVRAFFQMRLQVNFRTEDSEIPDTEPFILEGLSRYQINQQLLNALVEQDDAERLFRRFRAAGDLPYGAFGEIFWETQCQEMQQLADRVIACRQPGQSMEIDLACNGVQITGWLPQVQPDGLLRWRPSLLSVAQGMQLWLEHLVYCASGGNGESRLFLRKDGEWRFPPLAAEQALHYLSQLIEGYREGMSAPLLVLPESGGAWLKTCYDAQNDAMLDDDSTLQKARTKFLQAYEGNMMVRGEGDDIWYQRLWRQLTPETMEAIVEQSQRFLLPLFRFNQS
UniProt P08394, sequence (P04993 whole entry, chain 3 of 3, further chain): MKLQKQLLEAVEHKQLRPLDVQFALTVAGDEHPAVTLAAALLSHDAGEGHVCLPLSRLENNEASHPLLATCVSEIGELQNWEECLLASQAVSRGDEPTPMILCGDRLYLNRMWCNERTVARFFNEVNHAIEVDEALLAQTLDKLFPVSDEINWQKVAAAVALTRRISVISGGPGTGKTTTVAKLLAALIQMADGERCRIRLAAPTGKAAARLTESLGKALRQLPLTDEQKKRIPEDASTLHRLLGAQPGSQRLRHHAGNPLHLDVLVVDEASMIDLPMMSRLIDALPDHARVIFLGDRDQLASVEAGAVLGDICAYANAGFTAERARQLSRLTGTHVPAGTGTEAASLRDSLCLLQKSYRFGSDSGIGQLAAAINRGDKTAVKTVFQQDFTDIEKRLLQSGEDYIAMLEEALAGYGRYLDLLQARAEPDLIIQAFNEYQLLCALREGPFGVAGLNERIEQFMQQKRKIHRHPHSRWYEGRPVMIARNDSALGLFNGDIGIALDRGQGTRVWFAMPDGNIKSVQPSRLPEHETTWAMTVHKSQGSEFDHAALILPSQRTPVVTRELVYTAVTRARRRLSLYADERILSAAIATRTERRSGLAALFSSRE

Turning to “GamS (short form of the bacteriophage lambda Gam protein, expressed from pLDE136, partially purified MonoQ pool) (from UniProt P03702 1-98)”, the specific activity of GamS in the Gam-mediated RecBCD inhibition assay lay within 160 to 200 U/µg.
